Reference: patent publication US20120100106A1
Ends that are not written are not given here. * marks the point of attachment. Dansyl = CN(C)c1cccc2c(S(=O)(=O)*)cccc12

Assays:
collagen [1] = assay: fluorescence plate binding assay, collagen coated on 96-well high-binding plate, equilibrium fit
collagen [2] = assay: SPR (Biacore 2000), collagen immobilised on CM-3 chip, peptide in solution 100 µM to 1.5 µM, from on-off kinetics

| Kd (collagen [1]) | Kd (collagen [2]) | Binder |
| --- | --- | --- |
| 0.86 µM |  | Dansyl-GRRANAALKAGELYKSILYGC [Dansyl-…] |
|  | 1.2 µM | RRANAALKAGELYKSILYGC [… (SILY) peptide] |
